For six molecules, EC50 results are on record in patent publication US20260265390A1 (SHANDONG SIMCERE BIOPHARMACEUTICAL, published 2026).

In test [1] the target is T1, monkey CD3, on activated monkey PBMC (monkey).
T1 construct: whole, on cells
As to the kind of experiment: FACS, activated monkey PBMC. For orientation: In flow cytometry, cells or beads pass a laser one at a time.

Test [2] addresses T2, human BCMA (B cell maturation antigen), expressed on cells (human, UniProt Q02223 1-184).
T2 construct: whole, on cells; Overexpressed on Flp-in CHO cells; also called Flp-inCHO-human BCMA cells; CD269
T2 sequence (looked up): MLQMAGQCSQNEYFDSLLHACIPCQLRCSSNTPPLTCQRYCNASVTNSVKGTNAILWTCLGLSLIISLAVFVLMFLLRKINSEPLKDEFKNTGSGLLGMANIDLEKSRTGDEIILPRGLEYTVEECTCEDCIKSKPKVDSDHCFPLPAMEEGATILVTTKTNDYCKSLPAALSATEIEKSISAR
As to the kind of experiment: FACS, Flp-inCHO-human BCMA cells. As for the experimental part:
(§1) Flp-inCHO-human BCMA cells and CHOK1-human GPRC5D cells were scale-up cultured in T-75 cell culture flask to the logarithmic growth phase, respectively, and the cells were pipetted to obtain a single cell suspension. After the cells were counted and centrifuged, the cell precipitate was resuspended to 2×10⁶ cells per milliliter with a FACS buffer (PBS+2% fetal bovine serum). The suspension was added to a 96-well FACS reaction plate at 50 μl/well. 8 concentrations of the anti-BCMA-GPRC5D-CD3 antibodies or control antibodies were added at 50 μl/well, wherein gradient dilution was performed at a dilution ratio of 5 from a concentration of 100 nM. The cells were incubated at 4° C. for 1 h. The obtained mixture was centrifuged and washed 3 times with a PBS buffer. […] The obtained mixture was centrifuged and washed 3 times with a PBS buffer. 100 μl of the mixture was taken for detection and result analysis by FACS (FACS Canto™, purchased from BD Company). Data analysis was performed by software (FlowJo) to obtain the mean fluorescence intensity (MFI) of the cells. Then, a software (GraphPad Prism8) was used for analysis, data fitting and EC50 calculation.

The target of test [3] is T3, human GPRC5D, expressed on cells (human, UniProt Q9NZD1 1-345).
T3 construct: whole, on cells; Overexpressed on CHOK1 cells; also called CHOK1-human GPRC5D cells
As to the kind of experiment: FACS, CHOK1-human GPRC5D cells. As for the experimental part:
as §1

Where “and” joins values, the source holds several entries; their conditions need not be identical. Equal entries are not always repeated.

T3 sequence (Q9NZD1 whole entry): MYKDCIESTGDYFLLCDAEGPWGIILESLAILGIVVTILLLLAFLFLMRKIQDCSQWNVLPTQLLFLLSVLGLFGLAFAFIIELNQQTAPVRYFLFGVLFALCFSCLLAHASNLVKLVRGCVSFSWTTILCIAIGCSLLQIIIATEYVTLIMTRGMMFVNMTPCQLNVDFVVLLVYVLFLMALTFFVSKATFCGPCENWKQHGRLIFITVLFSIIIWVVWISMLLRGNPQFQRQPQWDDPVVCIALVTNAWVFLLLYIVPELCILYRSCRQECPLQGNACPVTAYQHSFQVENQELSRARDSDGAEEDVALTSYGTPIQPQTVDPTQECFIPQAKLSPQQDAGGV
T1 sequence (Q95LI5 22-198): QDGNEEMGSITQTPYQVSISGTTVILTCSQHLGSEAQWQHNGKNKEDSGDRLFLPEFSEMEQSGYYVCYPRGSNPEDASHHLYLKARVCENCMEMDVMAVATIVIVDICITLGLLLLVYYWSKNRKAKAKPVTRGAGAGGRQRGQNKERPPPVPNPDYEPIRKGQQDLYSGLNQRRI

B1: JNJ7564 (bispecific antibody targeting GPRC5D and CD3, Johnson & Johnson, WO 2019220368 A1) (bispecific antibody, human IgG4 S228P, kappa, lambda, F234A L235A)
heavy 1: not shown
light 1: DIQMTQSPSSLSASVGDRVTITCKASQNVATHVGWYQQKPGKAPKRLIYSASYRYSGVPSRFSGSGSGTEFTLTISNLQPEDFATYYCQQYNRYPYTFGQGTKLEIKRTVAAPSVFIFPPSDEQLKSGTASVVCLLNNFYPREAKVQWKVDNALQSGNSQESVTEQDSKDSTYSLSSTLTLSKADYEKHKVYACEVTHQGLSSPVTKSFNRGEC
heavy 2: EVQLVESGGGLVQPGGSLRLSCAASGFTFNTYAMNWVRQAPGKGLEWVARIRSKYNNYATYYAASVKGRFTISRDDSKNSLYLQMNSLKTEDTAVYYCARHGNFGNSYVSWFAYWGQGTLVTVSSASTKGPSVFPLAPCSRSTSESTAALGCLVKDYFPEPVTVSWNSGALTSGVHTFPAVLQSSGLYSLSSVVTVPSSSLGTKTYTCNVDHKPSNTKVDKRVESKYGPPCPPCPAPEAAGGPSVFLFPPKPKDTLMISRTPEVTCVVVDVSQEDPEVQFNWYVDGVEVHNAKTKPREEQFNSTYRVVSVLTVLHQDWLNGKEYKCKVSNKGLPSSIEKTISKAKGQPREPQVYTLPPSQEEMTKNQVSLTCLVKGFYPSDIAVEWESNGQPENNYKTTPPVLDSDGSFLLYSKLTVDKSRWQEGNVFSCSVMHEALHNHYTQKSLSLSLGK
light 2: QTVVTQEPSLTVSPGGTVTLTCRSSTGAVTTSNYANWVQQKPGQAPRGLIGGTNKRAPGTPARFSGSLLGGKAALTLSGVQPEDEAEYYCALWYSNLWVFGGGTKLTVLGQPKAAPSVTLFPPSSEELQANKATLVCLISDFYPGAVTVAWKADSSPVKAGVETTTPSKQSNNKYAASSYLSLTPEQWKSHRSYSCQVTHEGSTVEKTVAPTECS
notes: Positive control, made by reduction and reoxidation of the two monospecific antibodies
In the case of B1, the EC50 in test [1] is 5.79 nM and 5.72 nM.

B2: Tri-65 anti-BCMA-GPRC5D-CD3 trispecific antibody (other)
VHH: EVQLVESGGGLVQPGGSLRLSCAASESISSIHIMAWYRQAPGKQRELVAGIRNDGSTVYVDSVKGRFTISRDNAKNSLYLQMNSLRAEDTAVYYCNADQGFGSYSEWERRSRWGQGTTVTVSS
VH 1: EVQLVQSGAEVKKPGASVKVSCKTSGYIFTNFGITWVRQAPGQRLEWMGENYPRRINTYYNEKFKGRVTITADKSASTAYMELSSLRSEDTAVYYCSRKDIFGLSYALDYWGQGTTVTVSS
VL 1: DIQMTQSPSSLSASVGDRVTITCKASQNVGTNVAWYQHKPGKSPKALIYSASYQYSGVPSRFSGSGSGTDFTLTISSLQPEDVATYICQQYKNYPYTFGGGTKVEIK
VH 2: EVQLVESGGGVVQPGRSLRLSCAASGFTFTDYYMSWVRQAPGKGLEWVAMSRNKAKGHTIEYSSSVKGRFTISRDNSKNTLYLQMNSLRAEDTAVYYCARDTYESYDGYFDVWGQGTTVTVSS
VL 2: DIVMTQSPDSLAVSLGERATINCKSSQSLFNSRSRKNYLAWYQQKPGQTPKLLIYWASIRESGVPDRFSGSGSGTDFTLTISSLQAEDVAVYYCKQSYYLYTFGQGTKLEIK
chain 1: ESKYGPPCPPCPAPEAAGGPSVFLFPPKPKDTLMISRTPEVTCVVVDVSQEDPEVQFNWYVDGVEVHNAKTKPREEQFNSTYRVVSVLTVLHQDWLNGKEYKCKVSNKGLPSSIEKTISKAKGQPREPQVYTLPPSQEEMTKNQVSLWCLVKGFYPSDIAVEWESNGQPENNYKTTPPVLDSDGSFFLYSRLTVDKSRWQEGNVFSCSVMHEALHNHYTQKSLSLSLG
chain 2: ESKYGPPCPPCPAPEAAGGPSVFLFPPKPKDTLMISRTPEVTCVVVDVSQEDPEVQFNWYVDGVEVHNAKTKPREEQFNSTYRVVSVLTVLHQDWLNGKEYKCKVSNKGLPSSIEKTISKAKGQPREPQVYTLPPSQEEMTKNQVSLSCAVKGFYPSDIAVEWESNGQPENNYKTTPPVLDSDGSFFLVSRLTVDKSRWQEGNVFSCSVMHEALHNHYTQKSLSLSLG
notes: Trispecific antibody; Asymmetric (purification method C)
For the molecule B2, the EC50 is 2.54 nM in test [2] and 1.66 nM in test [3].

B3: Tri-66 anti-BCMA-GPRC5D-CD3 trispecific antibody (other)
VHH: EVQLVESGGGLVQPGGSLRLSCAASESISSIHIMAWYRQAPGKQRELVAGIRNDGSTVYVDSVKGRFTISRDNAKNSLYLQMNSLRAEDTAVYYCNADQGFGSYSEWERRSRWGQGTTVTVSS
VH 1: EVQLVQSGAEVKKPGASVKVSCKTSGYIFTNFGITWVRQAPGQRLEWMGENYPRRINTYYNEKFKGRVTITADKSASTAYMELSSLRSEDTAVYYCSRKDIFGLSYALDYWGQGTTVTVSS
VL 1: DIQMTQSPSSLSASVGDRVTITCKASQNVGTNVAWYQHKPGKSPKALIYSASYQYSGVPSRFSGSGSGTDFTLTISSLQPEDVATYICQQYKNYPYTFGGGTKVEIK
VH 2: EVQLVESGGGVVQPGRSLRLSCAASGFTFTDYYMSWVRQAPGKGLEWVAMSRNKAKGHTIEYSSSVKGRFTISRDNSKNTLYLQMNSLRAEDTAVYYCARDTYESYDGYFDVWGQGTTVTVSS
VL 2: DIVMTQSPDSLAVSLGERATINCKSSQSLFNSRSRKNYLAWYQQKPGQTPKLLIYWASIRESGVPDRFSGSGSGTDFTLTISSLQAEDVAVYYCKQSYYLYTFGQGTKLEIK
chain 1: ESKYGPPCPPCPAPEAAGGPSVFLFPPKPKDTLMISRTPEVTCVVVDVSQEDPEVQFNWYVDGVEVHNAKTKPREEQFNSTYRVVSVLTVLHQDWLNGKEYKCKVSNKGLPSSIEKTISKAKGQPREPQVYTLPPSQEEMTKNQVSLWCLVKGFYPSDIAVEWESNGQPENNYKTTPPVLDSDGSFFLYSRLTVDKSRWQEGNVFSCSVMHEALHNHYTQKSLSLSLG
chain 2: ESKYGPPCPPCPAPEAAGGPSVFLFPPKPKDTLMISRTPEVTCVVVDVSQEDPEVQFNWYVDGVEVHNAKTKPREEQFNSTYRVVSVLTVLHQDWLNGKEYKCKVSNKGLPSSIEKTISKAKGQPREPQVYTLPPSQEEMTKNQVSLSCAVKGFYPSDIAVEWESNGQPENNYKTTPPVLDSDGSFFLVSRLTVDKSRWQEGNVFSCSVMHEALHNHYTQKSLSLSLG
notes: as for B2
Take B3: the 50% effective concentration (EC50) was 1.09 nM in test [2] and 1.53 nM in test [3].

B4: Tri-38 anti-BCMA-GPRC5D-CD3 trispecific antibody (other)
VHH: EVQLVESGGGLVQPGGSLRLSCSASGFTLDYYMIGWFRQAPGKEREGLSSISPADGSTYYADSVKGRFTISRDSSKNTVYLQMNSLRAEDTAVYYCAAGNEATISWGFGPWEYDYWGQGTMVTVSS
VH 1: EVQLVQSGAEVKKPGSSVKVSCKASGYTFTSYGISWVRQAPGQGLEWMGEIYPRSGNTYYNEKFKGRVTLTADKSTSTAYMELSSLRSEDTAVYYCARGRAYGRNYPMDYWGQGTTVTVSS
VL 1: EIVLTQSPATLSLSPGERATLSCRASQSIGTSIHWYQQKPGQSPRLLIKYASESISGIPARFSGSGSGTDFTLTISSLEPEDFAVYYCQQSNSWPYTFGGGTKVEIK
VH 2: EVQLVESGGGVVQPGRSLRLSCAASGFTFTDYYMSWVRQAPGKGLEWVAMSRNKAKGHTIEYSSSVKGRFTISRDNSKNTLYLQMNSLRAEDTAVYYCARDTYESYDGYFDVWGQGTTVTVSS
VL 2: DIVMTQSPDSLAVSLGERATINCKSSQSLFNSRSRKNYLAWYQQKPGQTPKLLIYWASIRESGVPDRFSGSGSGTDFTLTISSLQAEDVAVYYCKQSYYLYTFGQGTKLEIK
chain 1: EPKSSDKTHTCPPCPAPEAAGGPSVFLFPPKPKDTLMISRTPEVTCVVVDVSHEDPEVKFNWYVDGVEVHNAKTKPREEQYNSTYRVVSVLTVLHQDWLNGKEYKCKVSNKALPAPIEKTISKAKGQPREPQVYTLPPSREEMTKNQVSLWCLVKGFYPSDIAVEWESNGQPENNYKTTPPVLDSDGSFFLYSKLTVDKSRWQQGNVFSCSVMHEALHNHYTQKSLSLSPG
chain 2: EPKSSDKTHTCPPCPAPEAAGGPSVFLFPPKPKDTLMISRTPEVTCVVVDVSHEDPEVKFNWYVDGVEVHNAKTKPREEQYNSTYRVVSVLTVLHQDWLNGKEYKCKVSNKALPAPIEKTISKAKGQPREPQVYTLPPSREEMTKNQVSLSCAVKGFYPSDIAVEWESNGQPENNYKTTPPVLDSDGSFFLVSKLTVDKSRWQQGNVFSCSVMHEALHNHYTQKSLSLSPG
notes: Trispecific antibody; Asymmetric (purification method B)
As to B4, the concentration giving a half-maximal response (EC50) was 4.43 nM in test [2] and 2.06 nM in test [3].

B5: antiFITC×CD3-Hab01 (negative control antibody, prepared internally) (bispecific antibody, human IgG4 S228P, kappa, F234A L235A)
heavy: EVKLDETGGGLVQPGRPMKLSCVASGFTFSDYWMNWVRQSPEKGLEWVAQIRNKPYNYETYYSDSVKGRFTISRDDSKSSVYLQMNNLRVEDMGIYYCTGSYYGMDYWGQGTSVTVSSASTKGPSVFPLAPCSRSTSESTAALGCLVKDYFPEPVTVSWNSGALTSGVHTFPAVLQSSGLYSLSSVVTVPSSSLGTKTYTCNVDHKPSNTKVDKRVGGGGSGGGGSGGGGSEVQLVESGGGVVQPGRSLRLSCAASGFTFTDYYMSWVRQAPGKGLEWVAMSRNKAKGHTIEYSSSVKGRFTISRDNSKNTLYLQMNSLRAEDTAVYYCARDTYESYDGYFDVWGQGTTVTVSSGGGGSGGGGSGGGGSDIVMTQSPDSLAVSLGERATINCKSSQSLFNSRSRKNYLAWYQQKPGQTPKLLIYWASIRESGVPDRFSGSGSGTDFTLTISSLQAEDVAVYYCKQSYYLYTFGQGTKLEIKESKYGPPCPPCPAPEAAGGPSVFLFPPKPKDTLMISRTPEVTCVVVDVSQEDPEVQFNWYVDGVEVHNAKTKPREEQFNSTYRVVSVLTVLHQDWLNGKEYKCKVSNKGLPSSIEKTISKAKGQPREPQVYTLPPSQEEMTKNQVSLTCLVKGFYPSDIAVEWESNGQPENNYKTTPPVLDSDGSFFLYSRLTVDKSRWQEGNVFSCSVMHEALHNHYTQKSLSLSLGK
light: DVVMTQTPLSLPVSLGDQASISCRSSQSLVHSNGNTYLRWYLQKPGQSPKVLIYKVSNRFSGVPDRFSGSGSGTDFTLKISRVEAEDLGVYFCSQSTHVPWTFGGGTKLEIKRTVAAPSVFIFPPSDEQLKSGTASVVCLLNNFYPREAKVQWKVDNALQSGNSQESVTEQDSKDSTYSLSSTLTLSKADYEKHKVYACEVTHQGLSSPVTKSFNRGEC
notes: Negative control for the tumor antigens
Consider B5, for which the half-maximal effective concentration (EC50) in test [1] was 15.2 nM and 12.4 nM.

B6: REGN5459 (bispecific antibody targeting BCMA and CD3, Regeneron, WO 2020018820 A1) (bispecific antibody, human IgG4 S228P, kappa)
heavy 1: EVQLVESGGGLVQPGGSLRLSCAASGFTFSNFWMTWVRQAPGKGLEWVANMNQDGSEKYYVDSVKGRFTISRDNAKSSLYLQMNSLRAEDTAVYYCARDREYCISTSCYDDFDYWGQGTLVTVSSASTKGPSVFPLAPCSRSTSESTAALGCLVKDYFPEPVTVSWNSGALTSGVHTFPAVLQSSGLYSLSSVVTVPSSSLGTKTYTCNVDHKPSNTKVDKRVESKYGPPCPPCPAPPVAGPSVFLFPPKPKDTLMISRTPEVTCVVVDVSQEDPEVQFNWYVDGVEVHNAKTKPREEQFNSTYRVVSVLTVLHQDWLNGKEYKCKVSNKGLPSSIEKTISKAKGQPREPQVYTLPPSQEEMTKNQVSLTCLVKGFYPSDIAVEWESNGQPENNYKTTPPVLDSDGSFFLYSRLTVDKSRWQEGNVFSCSVMHEALHNHYTQKSLSLSLGK
heavy 2: EVQLVESGGGLVQPGRSLRLSCAASGFTFDDYSMHWVRQAPGKGLEWVSGISWNSGSIGYADSVKGRFTISRDNAKNSLYLQMNSLRAEDTALYYCAKYGSGYGKFYYYGMDVWGQGTTVTVSSASTKGPSVFPLAPCSRSTSESTAALGCLVKDYFPEPVTVSWNSGALTSGVHTFPAVLQSSGLYSLSSVVTVPSSSLGTKTYTCNVDHKPSNTKVDKRVESKYGPPCPPCPAPPVAGPSVFLFPPKPKDTLMISRTPEVTCVVVDVSQEDPEVQFNWYVDGVEVHNAKTKPREEQFNSTYRVVSVLTVLHQDWLNGKEYKCKVSNKGLPSSIEKTISKAKGQPREPQVYTLPPSQEEMTKNQVSLTCLVKGFYPSDIAVEWESNGQPENNYKTTPPVLDSDGSFFLYSRLTVDKSRWQEGNVFSCSVMHEALHNRFTQKSLSLSLGK
light: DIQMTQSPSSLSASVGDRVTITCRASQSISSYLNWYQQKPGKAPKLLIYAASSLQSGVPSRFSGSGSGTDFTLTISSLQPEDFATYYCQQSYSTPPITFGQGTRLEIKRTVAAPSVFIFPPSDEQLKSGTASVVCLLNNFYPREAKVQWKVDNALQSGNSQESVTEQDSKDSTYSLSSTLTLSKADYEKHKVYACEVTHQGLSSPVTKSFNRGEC
notes: Positive control, expressed in Expi293F by the applicants; also called RGEN5459
As for B6, the response in test [1] was half-maximal at 161 nM (EC50).

As usually defined, the EC50 is the concentration at which the effect is half-maximal.
